The supplement of paper PMC9170038

System: MS2 coat protein
Test: apparent KD of MS2 coat protein; designed switch direction (-1 OFF switch, 1 ON switch): -1; higher = weaker reporter binding
Method in brief: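 Stalled E. coli RNA polymerase transcribed designed RNA switches on Illumina chips, which were then titrated with SNAP-549-labelled MS2 coat protein, doubling from 0.7 or 1.5 nM to 3 µM. Steps lasted from 0.8–1.5 h at the lowest concentration to 10–20 min at the highest. The apparent KD is each design's median over clusters of curve-fitted normalised fluorescence.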

[1] = input ligand: microRNA oligo, concentration not stated
[2] = Eterna round: R95, input ligand: FMN 200 uM
[3] = Eterna round: R95, input ligand: microRNA oligo, concentration not stated
[4] = Eterna round: R95, input ligand: none

## UUCUUUAUACGAGGAUAUCAUACAUGAGGAUCACCCAUGUGGCUGGGUCUGUUUUUAUAUAUUAUUGAGAAGGCGUUUUUCUUU [JR_ExcNG2_Sub074] (Eterna round: R96, puzzle: Exclusion NG 2)
Input ligand: FMN 200 uM
  apparent KD of MS2 coat protein: 197 nM
[1]
  apparent KD of MS2 coat protein: 50.5 nM
Input ligand: none
  apparent KD of MS2 coat protein: 86.7 nM

## UUGAUGUGAGGAUAUAUUUUUUUUUUUCUUUAUGUUUUAUAACUUGAGGAUCACCCAAGUAGAAGGCGCUACGU [JR_Ex2_Sub064] (Eterna round: R97, puzzle: Exclusion 2)
Input ligand: FMN 200 uM
  apparent KD of MS2 coat protein: 51.7 nM
Input ligand: none
  apparent KD of MS2 coat protein: 30.5 nM

## UUGCUACCUUGGUACUCUACAAGCUUUUUGCUCGUUUUAACAUGAGGAUCACCCAUGUCUAGUGGAUCUGAUCGGGU [JL ViennaUCT Isreen mod 3] (puzzle: Sensor v3, turn-off variant 2)
[2]
  apparent KD of MS2 coat protein: 87.4 nM
[3]
  apparent KD of MS2 coat protein: 197 nM
[4]
  apparent KD of MS2 coat protein: 77.5 nM

## UUGGACGGAGGAUAUGCAGCGAGUAAUACGAUCGAUCCAAAACAUGAGGAUCACCCAUGUAGAAGGCUGACCAA [Eternabot (L1) Solution 11] (Eterna round: R97, puzzle: Exclusion 2)
Input ligand: FMN 200 uM
  apparent KD of MS2 coat protein: 174 nM
Input ligand: none
  apparent KD of MS2 coat protein: 71.2 nM

## UUGGAGAUAGGAUAUACGAGGAGAGUAGAGGGAAGGUGAGGACAUGAGGAUCACCCAUGUAGAAGGAUCAGGAG [JR_Exclu2_Sub067] (puzzle: Exclusion 2)
[2]
  apparent KD of MS2 coat protein: 34.8 nM
[3]
  apparent KD of MS2 coat protein: 34.8 nM
[4]
  apparent KD of MS2 coat protein: 47.6 nM

## UUGGAUGUUGAGGAUAUGCUUUUUUUUAUUAUAGCAGAAGGCGAUACAUGAGGAUCACCCAUGUUCAUGGCUUU [JR_E6_Sub099] (puzzle: Exclusion 6)
[2]
  apparent KD of MS2 coat protein: 14.5 nM
[3]
  apparent KD of MS2 coat protein: 13.7 nM
[4]
  apparent KD of MS2 coat protein: 14.6 nM

## UUGGUUGUGGUAGGAUAUCCGUUGGAAACCGUUGGAGAAGGACCACAGUCACUGGGUCUUUGUUUGGUGGAGUGGAAGAACCAU [pwkr exNG1 F6.19] (Eterna round: R96, puzzle: Exclusion NG 1)
Input ligand: FMN 200 uM
  apparent KD of MS2 coat protein: 1020 nM
[1]
  apparent KD of MS2 coat protein: 210 nM
Input ligand: none
  apparent KD of MS2 coat protein: 349 nM

## UUGUAGUGAGGAUAUAUAUAGAGGUUUUAUUAAUUUUUAAAACUUGAGGAUCACCCAAGUAGAAGGCGCAAAGU [JR_Ex2_Sub071] (Eterna round: R97, puzzle: Exclusion 2)
Input ligand: FMN 200 uM
  apparent KD of MS2 coat protein: 41.5 nM
Input ligand: none
  apparent KD of MS2 coat protein: 39.9 nM

## UUGUUAUAUGUAGGAUAUGCGUAUUAUUAUUAGGCAGAAGGACAUGAGGAUCACCCAUGUAUGUUGUUGUUAUAUAUUAUAUAU [Title] (Eterna round: R96, puzzle: Exclusion NG 1)
[1]
  apparent KD of MS2 coat protein: 20.6 nM

## UUGUUAUAUGUAGGAUAUGCGUAUUAUUAUUGGGCAGAAGGACAUGAGGAUCACCCAUGUAUGUUGUUGUUAUAUAUUAUAUAU [Title] (Eterna round: R96, puzzle: Exclusion NG 1)
Input ligand: FMN 200 uM
  apparent KD of MS2 coat protein: 47.2 nM
[1]
  apparent KD of MS2 coat protein: 34 nM
Input ligand: none
  apparent KD of MS2 coat protein: 44.4 nM

## UUGUUAUAUGUAGGAUAUGCGUGUUAUUAUUAUGCAGAAGGACAUGAGGAUCACCCAUGUGUAUUAUUAUUAUAUAUUAUAUAU [Title] (Eterna round: R96, puzzle: Exclusion NG 1)
[1]
  apparent KD of MS2 coat protein: 15.4 nM

## UUGUUAUGUGUAGGAUAUGCAUAUUAUUAUUAUGCAGAAGGACAUGAGGAUCACCCAUGUAUAUUAUUAUUAUAUAUUAUAUAU [Title] (Eterna round: R96, puzzle: Exclusion NG 1)
[1]
  apparent KD of MS2 coat protein: 21.9 nM

## UUGUUGUAUGUAGGAUAUGCAUAUUAUUAUUAUGCAGAAGGACAUGAGGAUCACCCAUGUGUAUUAUUAUUAUAUAUUAUAUAU [Title] (Eterna round: R96, puzzle: Exclusion NG 1)
[1]
  apparent KD of MS2 coat protein: 20 nM

## UUUAAACAUGAGGAUCACCCAUGUGAGGAUAUACGAAUGCAGACACACACGGAUGCAAGUAGAAGGCACAACGC [Design #11] (Eterna round: R97, puzzle: Exclusion 1)
Input ligand: FMN 200 uM
  apparent KD of MS2 coat protein: 29.4 nM
Input ligand: none
  apparent KD of MS2 coat protein: 25 nM

## UUUAAGGUAAUUAAGAUCACAUGAGGAUCACCCAUGUAUAUAUAGGAUAUCAGCUCGUUUAGAGCUGAGAAGGAUAUAUACAUA [ExNG3/6-C2] (Eterna round: R96, puzzle: Exclusion NG 3)
Input ligand: FMN 200 uM
  apparent KD of MS2 coat protein: 21.6 nM
[1]
  apparent KD of MS2 coat protein: 178 nM
Input ligand: none
  apparent KD of MS2 coat protein: 136 nM

## UUUAAUUUUUUUUUUUUACAAGCUUUUUGCUCGUCUUAUACAUGAGGAUCACCCAUGUAGGUGAAGAGUAAAUUAUC [JMF 58] (puzzle: Sensor v3, turn-off variant 2)
[2]
  apparent KD of MS2 coat protein: 19.4 nM
[3]
  apparent KD of MS2 coat protein: 109 nM
[4]
  apparent KD of MS2 coat protein: 16.5 nM

## UUUAAUUUUUUUUUUUUACAAGCUUUUUGCUCGUCUUAUACAUGAGGAUCACCCAUGUGGGUAAGGGAUAAAUUAUC [JMF 37] (Eterna round: R96, puzzle: Sensor v3, turn-off variant 2)
Input ligand: FMN 200 uM
  apparent KD of MS2 coat protein: 65.4 nM
[1]
  apparent KD of MS2 coat protein: 51.8 nM
Input ligand: none
  apparent KD of MS2 coat protein: 59 nM

## UUUAAUUUUUUUUUUUUACAAGCUUUUUGCUCGUCUUAUACAUGAGGAUCACCCAUGUGGGUAAGGGAUAAAUUAUC [JMF 37] (puzzle: Sensor v3, turn-off variant 2)
[2]
  apparent KD of MS2 coat protein: 28.5 nM
[3]
  apparent KD of MS2 coat protein: 33.4 nM
[4]
  apparent KD of MS2 coat protein: 35.3 nM

## UUUAAUUUUUUUUUUUUACAAGCUUUUUGCUCGUCUUAUACAUGAGGAUCACCCAUGUGGGUAGGAGAUAAAUUAUC [JMF 16] (puzzle: Sensor v3, turn-off variant 2)
[2]
  apparent KD of MS2 coat protein: 32.1 nM
[3]
  apparent KD of MS2 coat protein: 45.4 nM
[4]
  apparent KD of MS2 coat protein: 57 nM

## UUUACAAGCUUAAGAUCCCACAUGAGGAUCACCCAUGUUCCUGGCCGUGAGGCUAGGUAAACUUAUGCUCGUCUUAU [JL TOV1 3.68] (Eterna round: R97, puzzle: Sensor, turn-off variant 1)
Input ligand: FMN 200 uM
  apparent KD of MS2 coat protein: 141 nM
Input ligand: none
  apparent KD of MS2 coat protein: 138 nM

## UUUACAAGCUUUUGAUCCCACAUGAGGAUCACCCAUGUUGCUGCCGUGAGGUAGCUUUUAACAAAUGCUCGUCUUAU [JL TOV1 3.37] (Eterna round: R97, puzzle: Sensor, turn-off variant 1)
Input ligand: FMN 200 uM
  apparent KD of MS2 coat protein: 590 nM
Input ligand: none
  apparent KD of MS2 coat protein: 690 nM

## UUUAGUCGUGACAUGGGUGACAUGAGGAUCACCCAUGUCACAAGCUUCUCGCUCGUCUUAUAAUUAACCCAUGUCAC [LRO Sensor-off var1-14 mod of Stov1-13-A1 by Brourd] (Eterna round: R97, puzzle: Sensor, turn-off variant 1)
Input ligand: FMN 200 uM
  apparent KD of MS2 coat protein: 18.6 nM
Input ligand: none
  apparent KD of MS2 coat protein: 19.8 nM

## UUUAGUCGUGACAUGGGUGACAUGAGGAUCACCCAUGUUACAAGCUUGUUGCUCGUCUUAUAAUUAACCCAUGUCAC [LRO Sensor-off var1-16 mod of Stov1-13-A1 by Brourd] (Eterna round: R97, puzzle: Sensor, turn-off variant 1)
Input ligand: FMN 200 uM
  apparent KD of MS2 coat protein: 13.5 nM
Input ligand: none
  apparent KD of MS2 coat protein: 17.2 nM

## UUUAGUUCAGGAUAUGAUGAAUUAAACAUGAGGAUCACCCAUGUAGAUCCUGAAUUAACAUCAGAAGGGAAUAUUU [JL-ex5-4.47 Brourd mod] (Eterna round: R97, puzzle: Exclusion 5)
Input ligand: FMN 200 uM
  apparent KD of MS2 coat protein: 15.1 nM
Input ligand: none
  apparent KD of MS2 coat protein: 13.7 nM

## UUUAGUUCAGGAUAUGUAGAUUUAAACAUGAGGAUCACCCAUGUAAAUCCUGAUCCUGCUACAGAAGGGAACAUUU [Mat - Exclusion 5 - Eli Mod - D11] (Eterna round: R97, puzzle: Exclusion 5)
Input ligand: FMN 200 uM
  apparent KD of MS2 coat protein: 16.6 nM
Input ligand: none
  apparent KD of MS2 coat protein: 12.7 nM
